Results published in patent publication US20260256927A1 (Merck Sharp & Dohme, published 2026).

T1: IL-2Rβ-Fc (Acro Biosystems, catalog #ILB-H5253) (UniProt P14784 27-239, limits assumed)
T1 construct: Bought reagent; Captured on an anti-Fc chip as SPR ligand; also called CD122; not shown: Fc part of the bought fusion
T1 sequence (looked up): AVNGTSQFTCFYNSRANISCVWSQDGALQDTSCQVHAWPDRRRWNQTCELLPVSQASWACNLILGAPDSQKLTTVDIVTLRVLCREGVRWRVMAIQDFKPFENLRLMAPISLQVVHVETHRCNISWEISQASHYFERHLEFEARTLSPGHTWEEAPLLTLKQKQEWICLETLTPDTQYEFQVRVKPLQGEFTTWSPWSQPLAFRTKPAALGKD

T2: IL-2Rα-Fc (Acro Biosystems, catalog #ILA-H5251) (UniProt P01589 22-217, limits assumed)
T2 construct: Bought reagent; Captured on an anti-Fc chip as SPR ligand; also called CD25; not shown: Fc part of the bought fusion
T2 sequence (looked up): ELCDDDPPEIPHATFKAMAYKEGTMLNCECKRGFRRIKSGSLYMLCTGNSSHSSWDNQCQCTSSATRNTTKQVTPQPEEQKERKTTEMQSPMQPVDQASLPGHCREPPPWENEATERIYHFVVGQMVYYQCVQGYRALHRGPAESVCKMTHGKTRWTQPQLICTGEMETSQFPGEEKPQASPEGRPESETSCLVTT


Legend:
[1] = target: T1, IL-2Rβ-Fc (Acro Biosystems, catalog …); assay: SPR, kinetic binding to IL-2 receptor
[2] = target: T2, IL-2Rα-Fc (Acro Biosystems, catalog …); assay: SPR, kinetic binding to IL-2 receptor
[3] = target: T2, IL-2Rα-Fc (Acro Biosystems, catalog …); assay: SPR (Biacore T200), kinetic; receptor-Fc captured on anti-Fc CM5 chip, IL-2 variant as analyte
Procedure: (§1) Anti-Fc polyclonal antibodies were immobilized onto a CM5 chip (GE Life Sciences) using amine coupling chemistry (from Amine Coupling Kit, GE Life Sciences). The immobilization steps were carried out at a flow rate of 25 μL/minute in 1×HBS-EP+ buffer (GE Life Sciences; 10× Stock diluted before use). The sensor surfaces were activated for 7 minutes with a mixture of NHS (0.05 M) and EDC (0.2 M). The anti-Fc antibodies were injected over all four flow cells at a concentration of 25 μg/mL in 10 mM sodium acetate, pH 4.5, for seven minutes. Ethanolamine (1 M, pH 8.5) was injected for seven minutes to block any remaining activated groups.
(§2) Kinetic binding experiments were performed at 25° C. using 1×HBS-EP+ with 0.05% BSA buffer. IL-2Rα-Fc or IL-2Rβ-Fc (Acro Biosystems, catalog #ILA-H5251, ILB-H5253) was injected over the anti-Fc surface at concentrations of 3-10 μg/mL for 12 seconds at a flow rate of 10 μL/minute on flow cells 2, 3 and 4, followed by a buffer wash for 30 seconds at the same flow rate. Kinetic characterization of conjugated or unconjugated aldesleukin or variants was carried out in a range of concentrations from 1 nM-10 μM and one injection of no antigen. After capturing ligand (IL-2Rα-Fc or IL-2Rβ-Fc) on the anti-Fc surface, the analyte (IL-2 variant) was bound for 60 seconds, followed by a 180 second dissociation phase at a flow rate of 50 μL/min. Between each ligand capture and analyte binding cycle, regeneration was carried out using two injections of 10 mM Glycine pH 1.5 for 30 seconds at 30 μL/minute, followed by a 30 second buffer wash step.

[4] = target: T1, IL-2Rβ-Fc (Acro Biosystems, catalog …); assay: as above
Procedure: as §1, §2

[5] = target: T2, IL-2Rα-Fc (Acro Biosystems, catalog …); assay: SPR, receptor-Fc captured on anti-Fc chip

Row | Binder | Kd [1] [µM] | Kd [2] [µM] | further results
1 | Aldesleukin-6His_S4/Y30/K34 pAMF F41K (SP10684) conjugated to SC547 stump (ligand, X5, X31, X35 = pAMF (S4, Y30, K34), each conjugated to SC547 (conjugation stump), also called SP10724 stump conjugate) MPTSFSTKKTQLQLEHLLLDLQMILNGINNFKNPFLTRMLTKKFYMPKKATELKHLQCLEEELKPLEEVLNLAQSKNFHLRPRDLISNINVIVLELKGSETTFMCEYADETATIVEFLNRWITFSQSIISTLTGGSHHHHHH | 3 |  | 
2 | Aldesleukin-6His_S4/K34/F77 pAMF (SP10682) conjugated to SC547 stump (ligand, X5, X35, X78 = pAMF (S4, K34, F77), each conjugated to SC547 (conjugation stump), also called SP10722 stump conjugate) MPTSFSTKKTQLQLEHLLLDLQMILNGINNYKNPFLTRMLTFKFYMPKKATELKHLQCLEEELKPLEEVLNLAQSKNFHLRPRDLISNINVIVLELKGSETTFMCEYADETATIVEFLNRWITFSQSIISTLTGGSHHHHHH | 3 | 0.04 | 
3 | Aldesleukin-6His_S4/K34/V114 pAMF (SP10683) conjugated to SC547 stump (ligand, X5, X35, X115 = pAMF (S4, K34, V114), each conjugated to SC547 (conjugation stump), also called SP10723 stump conjugate) MPTSFSTKKTQLQLEHLLLDLQMILNGINNYKNPFLTRMLTFKFYMPKKATELKHLQCLEEELKPLEEVLNLAQSKNFHLRPRDLISNINVIVLELKGSETTFMCEYADETATIFEFLNRWITFSQSIISTLTGGSHHHHHH | 2 | 0.3 | 
4 | Ald-6HIS_Y30pAMF (SP9957), unconjugated (ligand, X31 = pAMF (Y30 in SEQ ID NO: 2/3 numbering), also called Aldesleukin-6His Y30TAG p-azidomethyl-L-phenylalanine) MPTSSSTKKTQLQLEHLLLDLQMILNGINNFKNPKLTRMLTFKFYMPKKATELKHLQCLEEELKPLEEVLNLAQSKNFHLRPRDLISNINVIVLELKGSETTFMCEYADETATIVEFLNRWITFSQSIISTLTGGSHHHHHH |  |  | Kd [3]: 0.009 µM; Kd [4]: 0.2 µM
5 | Ald-6HIS_S4pAMF (SP9954) conjugated to DBCO 2 x 10 kDa PEG (PEG2) (ligand, X5 = pAMF (S4) conjugated to branched 20 kDa PEG (DBCO 2 x 10 kDa PEG, PEG2), also called SP9954 PEG2 conjugated) MPTSFSTKKTQLQLEHLLLDLQMILNGINNYKNPKLTRMLTFKFYMPKKATELKHLQCLEEELKPLEEVLNLAQSKNFHLRPRDLISNINVIVLELKGSETTFMCEYADETATIVEFLNRWITFSQSIISTLTGGSHHHHHH |  |  | Kd [3]: 0.1 µM
6 | SP10724 (Aldesleukin-6His_S4/Y30/K34 pAMF F41K conjugated to SC579) (ligand, X5, X31, X35 = pAMF (S4, Y30, K34), each conjugated to SC579 (releasable 20 kDa mPEG Fmoc-DBCO linker), also called SP10724 PEG conjugate) MPTSFSTKKTQLQLEHLLLDLQMILNGINNFKNPFLTRMLTKKFYMPKKATELKHLQCLEEELKPLEEVLNLAQSKNFHLRPRDLISNINVIVLELKGSETTFMCEYADETATIVEFLNRWITFSQSIISTLTGGSHHHHHH |  |  | binding result [5]: no binding
7 | SP10728 (Aldesleukin-6His_S4/Y30/K34/R80 pAMF F41K conjugated to SC579) (ligand, X5, X31, X35, X81 = pAMF (S4, Y30, K34, R80), each conjugated to SC579 (releasable 20 kDa mPEG Fmoc-DBCO linker), also called SP10728 PEG conjugate) MPTSFSTKKTQLQLEHLLLDLQMILNGINNFKNPFLTRMLTKKFYMPKKATELKHLQCLEEELKPLEEVLNLAQSKNFHLFPRDLISNINVIVLELKGSETTFMCEYADETATIVEFLNRWITFSQSIISTLTGGSHHHHHH |  |  | binding result [5]: no binding
8 | Aldesleukin_S4/Y30/K34 pAMF (SP10480) conjugated to SC547 stump (ligand, X5, X31, X35 = pAMF (S4, Y30, K34), each conjugated to SC547 (conjugation stump), also called SP10504 stump conjugate) MPTSFSTKKTQLQLEHLLLDLQMILNGINNFKNPFLTRMLTFKFYMPKKATELKHLQCLEEELKPLEEVLNLAQSKNFHLRPRDLISNINVIVLELKGSETTFMCEYADETATIVEFLNRWITFSQSIISTLT | 0.7 |  | 
9 | Aldesleukin_S4/K34/V114 pAMF (SP10774) conjugated to SC547 stump (ligand, X5, X35, X115 = pAMF (S4, K34, V114), each conjugated to SC547 (conjugation stump), also called SP10782 stump conjugate) MPTSFSTKKTQLQLEHLLLDLQMILNGINNYKNPFLTRMLTFKFYMPKKATELKHLQCLEEELKPLEEVLNLAQSKNFHLRPRDLISNINVIVLELKGSETTFMCEYADETATIFEFLNRWITFSQSIISTLT | 0.5 | 0.1 | 
10 | Aldesleukin_S4/Y30/K34/V114 pAMF (SP10777) conjugated to SC547 stump (ligand, X5, X31, X35, X115 = pAMF (S4, Y30, K34, V114), each conjugated to SC547 (conjugation stump), also called SP10785 stump conjugate) MPTSFSTKKTQLQLEHLLLDLQMILNGINNFKNPFLTRMLTFKFYMPKKATELKHLQCLEEELKPLEEVLNLAQSKNFHLRPRDLISNINVIVLELKGSETTFMCEYADETATIFEFLNRWITFSQSIISTLT | 0.2 |  | 
11 | Aldesleukin_S4/Y30/K34/Q73 pAMF (SP10776) conjugated to SC547 stump (ligand, X5, X31, X35, X74 = pAMF (S4, Y30, K34, Q73), each conjugated to SC547 (conjugation stump), also called SP10784 stump conjugate) MPTSFSTKKTQLQLEHLLLDLQMILNGINNFKNPFLTRMLTFKFYMPKKATELKHLQCLEEELKPLEEVLNLAFSKNFHLRPRDLISNINVIVLELKGSETTFMCEYADETATIVEFLNRWITFSQSIISTLT | 0.3 | 0.009 | 
